# Measured values reported in patent US8389468B2, “Approach to the treatment of compartment syndrome” (Lantmannen AS-Faktor AB, priority 2006, dated 2013).
# System: HSV-1 infected rats
# Experiment: Intracranial pressure (ICP) and neurological symptoms in HSV-1 infected rats, fibre optic pressure sensor
# Type: in vivo, rat
# Conditions: HSV-1 infected rat treated twice daily, day 5
# Method: Adult rats were infected by having a solution of the Herpes Simplex virus type 1 (HSV-1; strain 2762, batch 041028; 1.7×10^7 PFU/mL; 25 pL) instilled in their right nostril. One group of animals (n=6) received 10 min after the infection 25 pL (10 pg) of AF-16 in their right nostril, and had thereafter the same dose of AF-16 instilled twice daily, every morning at 8 AM and every night at 6 PM, until the experiment was terminated on day 6. Additional HSV-1 infected rats (n=6) received in the nose at the same time intervals 25 pL of the vehicle, phosphate buffered saline (PBS). On day 6, the animals were anaesthetized, a surgical incision made through the skin on the head, and the skull bone freed from periostium and connective tissue. A hole with a diameter of about 1 mm was drilled through the right parietal bone and a miniature pressure sensor inserted 3-5 mm into the brain or into the lateral ventricle. A fibre optic pressure measure system (Samba System 3200 & Samba Preclin 420 sensor; Samba Sensors AB, V Frolunda, Sweden) with a very small diameter, ve. 0.4 mm, was used. […] HSV-1 infected rats treated with just the vehicle were measured to have as high pressures as up to 30-45 mm Hg (FIG. 2a), considerably affect the animals as reflected by symptoms of neurological dysfunction of increasing severity. In contrast, HSV-1 infected rats treated from the time of infection with AF-16 twice daily had almost normal ICP, 8-14 mm Hg (FIG. 2 b).
# Additional HSV-1 infected animals with distinctly overt symptoms were as well treated with 10 or 25 pg AF-16 intranasally, starting on day 5, 6 or 7, i.e. after having had the vehicle during the previous days. […] Thus, non of the acutely AF-16 treated rats had any persistent signs of deleterious ICP and thus no CS developed. […] That is seen in the mentioned figure (FIG. 5 a) as there is no red staining of the right half on the figure. However, treatment with 10 or 25 pg AF-16 intranasally turned the picture in HSV-1 infected rats as in the normal, non-infected ones. […] Thereby the outflow of CSF was restored and the ICP turned normal.
molecule,measurement,value
"AF: antisecretory factor; antisecretory proteins and peptides; in FIG. 2b probably AF-16 (protein, UniProt P55036 1-377, looked up) 26S proteasome non-ATPase …: MVLESTMVCVDNSEYMRNGDFLPTRLQAQQDAVNIVCHSKTRSNPENNVGLITLANDCEVLTTLTPDTGRILSKLHTVQPKGKITFCTGIRVAHLALKHRQGKNHKMRIIAFVGSPVEDNEKDLVKLAKRLKKEKVNVDIINFGEEEVNTEKLTAFVNTLNGKDGTGSHLVTVPPGPSLADALISSPILAGEGGAMLGLGASDFEFGVDPSADPELALALRVSMEEQRQRQEEEARRAAAASAAEAGIATTGTEDSDDALLKMTISQQEFGRTGLPDLSSMTEEEQIAYAMQMSLQGAEFGQAESADIDASSAMDTSEPAKEEDDYDVMQDPEFLQSVLENLPGVDPNNEAIRNAMGSLASQATKDGKKDKKEEDKK",ICP (FIG. 2b),almost turned the ICP back to normal levels
